# Source: the nanobody polyreactivity screen of Harvey et al. (2022)
# Experiment: yeast display, Sf9 membrane polyspecificity reagent, FACS + sequencing; frameworks hold sequencing errors
# Procedure, shortened: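 Galactose-induced (36–48 hours) yeast carrying a synthetic nanobody display library were exposed to 10% biotinylated, detergent-solubilized Sf9 membrane reagent at 4 °C for 1 hour. FACS followed streptavidin microbead enrichment, using low and high (top ~1%) gates for expression (anti-HA) and reagent binding (streptavidin). Colony PCR, MiSeq 2 × 250 sequencing and CDR-length filtering followed. Labels for polyreactivity reflect the gate of origin.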
row,Sequence,polyreactivity (PSR sort gate)
1,QVQLVESGGGLVQAGGSLRLSCAASGRIFFGYAMGWYRQAPGKEREFVAAITRRGGSTYYADSVKGRFTISRDNAKNTVYLQMNSLKPEDTADYYCAKDTIGGASPHYYWGQGTQVTVSS,high polyreactivity
2,QVQLVESGGGLVQAGGSLRLSCAASGRIFFIYAMGWYRQAPGKERELVAAISYDSGSTYYADSVKGRFTISRDNAKNTVYLQMNSLKPEDTAVYYCAAEWGLVIYSTYGYDYWGQGTQVTVSS,low polyreactivity
3,QVQLVESGGGLVQAGGSLRLSCAASGRIFFIYPMGWYRQAPGKERELVAGINRTGGSTYYADSVKGRFTISRDNAKNTVYLQMNSLKPEDTAVYYCAAVSYYASDYRYDYWGQGTQVTVSS,low polyreactivity
4,QVQLVESGGGLVQAGGSLRLSCAASGRIFFLNTMGWYRQAPGKERELVAAITRGGSTYYADSVKGRFTISRDNAKNTVYLHMNSLKPEDTAVYYCAADVYGGIGYDYWGQGTQVTVSS,low polyreactivity
5,QVQLVESGGGLVQAGGSLRLSCAASGRIFFLNTMGWYRQAPGTERELVAAITRGGSTYYADSVKGRFTISRDNAKNTVYLQMNSLKPEDTAVYYCAADVYGGIGYDYWGQGTQVTVSS,low polyreactivity
6,QVQLVESGGGLVQAGGSLRLSCAASGRIFFRNALGWYRQAPGKERELVAVINTGGSTNYADSVKGRFTISRDNAKNTVYLQMNSLTPEDTAVYYCAVDRASRRTYNQYGYWGQGTQVTVSS,high polyreactivity
7,QVQLVESGGGLVQAGGSLRLSCAASGRIFFSYAMGWYRQAPGKERELVAAISRSGGRTYYADSVKGRFTISRDNAKNTVYLQMNSLKPEDTAVYYCAASSISSLYYDYWGQGTQVTVSS,high polyreactivity
8,QVQLVESGGGLVQAGGSLRLSCAASGRIFFVNAMGWSRQAPGKERELVAAISRGGSTNYADSVKGRFTISRDNAKNTVYLQMNSLKPEDTAVYYCNADGSSYWYPVPLDGGDYWGQGTQVTVSS,low polyreactivity
9,QVQLVESGGGLVQAGGSLRLSCAASGRIFFYNVMGWYRQAHGKERELVAAITTIGGSTYYADSVKGRFTISRDNAMNTVYLQMNSLKPEDTAVYYCAAGWVTNSDGMDYWGQGTQVTVSS,low polyreactivity
10,QVQLVESGGGLVQAGGSLRLSCAASGRIFFYNVMGWYRQAPGKERELVAAITTIGGSTYYADSVKGRFTISRDNAKNTVYLQMNSLKPEDTAVYYCAAGWVTNSDGMDYWGQGTQVTVSS,low polyreactivity
11,QVQLVESGGGLVQAGGSLRLSCAASGRIFFYYAMGWYRQAPGKERELVAAISKSGGRTYYADSVKGRFTISRDNAKNTVYLQMNSLKPEDTAVYYCAAYSAHDSDYWGQGTQVTVSS,high polyreactivity
12,QVQLVESGGGLVQAGGSLRLSCAASGRIFFYYAMGWYRQAPGKERELVATITASGDSTYYADSVKGRFTISRDNAMDTVYLQMNSLKPEDTAVYYCAADDGDYYEVDYWGQGTQVTVSS,low polyreactivity
13,QVQLVESGGGLVQAGGSLRLSCAASGRIFFYYVMGWYRQAPGKERELVAAITRSGGSTYYADSVKGRFTISRDNAKNTVYLQMNSLKPEDTAVYYCAVGDGFEYDWGQGTQVTVSS,low polyreactivity
14,QVQLVESGGGLVQAGGSLRLSCAASGRIFGANAMGWSRQAPGKERELVATITYVGTSTYYADSVKGRFTISRDNAKNTVYLQMNSLKPEDTAVYYCAADGYSVFAAILGEYFDYDYWGQGSQVTVSS,low polyreactivity
15,QVQLVESGGGLVQAGGSLRLSCAASGRIFGAYAMGWYRPAPGKERELVAAITGGDSTYYADSVKGRFTISRDNAKNTVYLQMNSLKPEDTAVYYCAADLTPEGVLQLGKYINYDSWGQGTQVTVSS,low polyreactivity
16,QVQLVESGGGLVQAGGSLRLSCAASGRIFGAYAMGWYRQAPGKERELVAAIDIRGGNTYYADSVKGRFTISRDNAKNTVYLQMNSLKPEDTAVYYCAADTWYDAYNYWGQGTQVNVSS,low polyreactivity
17,QVQLVESGGGLVQAGGSLRLSCAASGRIFGDNAMGWYRQAPGKERELVADITSSGGSTHYADSVKGRFTISRDNAKNNVYLQLNSLKPEDTEVYYCNADDYVYFDDGDYWGQGTQVTVSS,low polyreactivity
18,QVQLVESGGGLVQAGGSLRLSCAASGRIFGEYAMGWYSQAPGKERELVASISSGGNTNYADSVKGRFTISRDNAKNTFYLQMNSLKPEDTAVYYCAADDYATPQKMDYWGQGTQVTVSS,high polyreactivity
19,QVQLVESGGGLVQAGGSLRLSCAASGRIFGFYALGWYRQAAGKEWELVAAISQSRGSTYYADSVKGRFTISRDTANNTVYLQMNSLKPEDTAVYYCAKGYKYGKNIYYYWGQGTQVTVSS,high polyreactivity
20,QVQLVESGGGLVQAGGSLRLSCAASGRIFGFYAMGWYRQAPGKERELVARISSRGGSTYYADSVKGRFTISRDNAKNTVYLQMNSLKPEDTAVYYCAAYVWYHQYHYVPMDYWGQGTQVTVSS,high polyreactivity
21,QVQLVESGGGLVQAGGSLRLSCAASGRIFGFYAMGWYRQAPGKERELVARITLSGGRTYYADSVKGRFTISRDNAKNTVYLQMNSLKPEDTEVYYCAADSIGRLWGYGYWGQGTQVTVSS,high polyreactivity

row,Sequence,polyreactivity (PSR sort gate)
1,QVQLVESGGGLVQAGGSLRLSCAASGRIFGGNAMGWYRQAPGKERELVAAITSGGGSTSYADSVKGRFTISRDNAKNTVYLQMNSLKPEDTAVYYCAAPATYGPFVIDTVYPRDGYWGQGTQVTVSS,low polyreactivity
2,QVQLVESGGGLVQAGGSLRLSCAASGRIFGGYAMGGYRQAPGKERELVAAISSRGTRTYYADSVKGRITISRDNAKNTVYLQMNSLKPEDTAVYYCATAYRGFHYSPLRELDYWGQGTQVTVSS,high polyreactivity
3,QVQLVESGGGLVQAGGSLRLSCAASGRIFGGYAMGWYRPAPGKERELVAAISGGGSTNYADSVKGRFTISRDNAKNTVYLQMNSLKPEDTAVYYCAAQYWSRRFYWYGYWGQGTQVTVSS,high polyreactivity
4,QVQLVESGGGLVQAGGSLRLSCAASGRIFGGYAMGWYRQAPGKERELVAAISARGGSTYYADSVKGRFTISRDNAKNTVYLQMNSLKPEDTAVYYCAAAEASSRGYYDYDYWGQGTQVTVSS,low polyreactivity
5,QVQLVESGGGLVQAGGSLRLSCAASGRIFGGYAMGWYRQAPGKERELVAAISNGGRTNYADSVKGRFTISRDNAKNTVYLQMISLKPEDTAVYYCAARNYKPYGYYRIYDSWGQGTQVTVSS,high polyreactivity
6,QVQLVESGGGLVQAGGSLRLSCAASGRIFGGYAMGWYRQAPGKERELVAAITFRSGTTYYADSVKGRFTISRDNAKNTVYLQMNSLKPEDTAVYYCAARWGPYAFTYVRTYDYWGQGTQVTVSS,low polyreactivity
7,QVQLVESGGGLVQAGGSLRLSCAASGRIFGGYAMGWYRQAPGKERELVAAITQSGGSTYYADSVKGRFTISRDNAKNTVYLQMNSLKPEDTAVYYCATYAWYIFGYWGQGTQVTVSS,low polyreactivity
8,QVQLVESGGGLVQAGGSLRLSCAASGRIFGGYAMGWYRQAPGKERELVAVITDGGSTNYADSVKRRFTISRDNAKNTVYLQMNSLKPEDTAVYYCAADSDGDEPPYDYWGQGTQVTVSS,low polyreactivity
9,QVQLVESGGGLVQAGGSLRLSCAASGRIFGGYVMGWYRQAPGKERELVAAISKRGDSTYYADSVKGRFTISRDNAKHTVYLQMNSLKPEDTAVYYCAAVRRGDRGTDMDYWGQGTQVTVSS,high polyreactivity
10,QVQLVESGGGLVQAGGSLRLSCAASGRIFGHNAMGWYRQAPGKERELVARISSTGSTKYADSVKGRFTISRDNAKNTVYFQMNSLKPEDTAVYYCAAVDRLRSIRYDYWGQGTQVTVSS,high polyreactivity
11,QVQLVESGGGLVQAGGSLRLSCAASGRIFGHYVMGWYRQAPGKERELVAAITWRGGSTYYADSVKGRFTISRDNAKNTVYLQMNSLKPEDTAVYYCNRALPGYGLRRDYWGQATQVTVSS,high polyreactivity
12,QVQLVESGGGLVQAGGSLRLSCAASGRIFGINGMGWYRQAPGKERELVAAITWIGGRTYYADSVKGRFTISRDNAKNTVYLQMNSLKPEDTAVYYCNAVYTQRFATYRRYDYWGQGTQVTVSS,high polyreactivity
13,QVQLVESGGGLVQAGGSLRLSCAASGRIFGIYAMGWFRLAPWKERELVARITGGGSTNYADSLKGRFTISRDNAKNTVYFQMTSLKPEDTAVYYCNTKKLPYAEGYWGQGTQVTVSS,low polyreactivity
14,QVQLVESGGGLVQAGGSLRLSCAASGRIFGIYAMGWYRHAPGKERELVATITWSGGSTYYADSVKGRFTISRDNAKNTVYLQMNSLKPEDTAVYYCAAYYRQFFGWYDYWGQGTQVTVSS,high polyreactivity
15,QVQLVESGGGLVQAGGSLRLSCAASGRIFGIYAMGWYRQAPGKERELVASITDGTITNYADSVKGRFTISRDNAKNTVYLQMNSLKPVDTAVYYCAAGTQAHAYVVRPIEMDYWGQGTQVTVSS,low polyreactivity
16,QVQLVESGGGLVQAGGSLRLSCAASGRIFGIYAMGWYRQAPGKERELVASITGSSGSTNYADSVKGRFTISRDNAKNTVYLQMNSLKPDDTAVYYCAADIPSYYWWRAYDYWGQGTQVTVSS,low polyreactivity
17,QVQLVESGGGLVQAGGSLRLSCAASGRIFGIYAMGWYRQAPGKERELVSRITGGGSTNYADSVKGRFTISRDNAKNTVYLQMNSLKPEDTAVYYCAADSYLSVYDPYGYWGQGTQVTVSS,low polyreactivity
18,QVQLVESGGGLVQAGGSLRLSCAASGRIFGIYAMGWYRQAPGKERVLVAAISRSGGSTYYADSVKGRFTISRDNAKNTVYLQMNSLKPEDTAVYYCAADSRSWTGYYYWGQGTQVTVSS,high polyreactivity
19,QVQLVESGGGLVQAGGSLRLSCAASGRIFGIYAMGWYRQAPGKESEFVAAISWRTGSTYYADSVKWRFTISRDNAKNTVYLQMNRLNPADTAVYYCAAESASKYGYWVQGTQVTVSS,high polyreactivity
20,QVQLVESGGGLVQAGGSLRLSCAASGRIFGIYAMGWYRQAPRKERELVASITDGTITNYADSVKGRFTISRDNAKNTVYLQMNSLKPEDTAVYYCAAGTQAHAYVVRPIEMDYWGQGTQVTVSS,low polyreactivity
